# Like-named read-outs stand apart in the source and are kept apart here.
# How the values were obtained:
# Experiment in all cases: ITC
# [1] = molecular target: T1, HIV-1 nucleocapsid protein (NC) (HIV-1 NL4-3, UniProt P12493 378-432)
# [2] = molecular target: T1, HIV-1 nucleocapsid protein (NC); remark: listed apart in the source
# [3] = molecular target: T1, HIV-1 nucleocapsid protein (NC); remark: listed apart in the source
# [4] = molecular target: T1, HIV-1 nucleocapsid protein (NC); remark: listed apart in the source
# [5] = molecular target: T1, HIV-1 nucleocapsid protein (NC); remark: listed apart in the source
# [6] = molecular target: T1, HIV-1 nucleocapsid protein (NC); remark: listed apart in the source
# [7] = molecular target: T1, HIV-1 nucleocapsid protein (NC); remark: listed apart in the source
# [8] = molecular target: T1, HIV-1 nucleocapsid protein (NC); remark: listed apart in the source
binder,measurement,setting,value
UUUGCCCUUCU (ssRNA) [U5UGU (G106U;G112U)],Kd,[1],812 ± 91 nM
UUUGCCCGUCU (ssRNA) [U5UGG (G106U)],Kd,[2],267 ± 20 nM
UUUUCCCUUCU (ssRNA) [U5UUU (G106U;G108U;G112U)],binding result,[3],no binding
"UGUGCCCGUCU (ssRNA) [U5 (U5GGG, native)]",Kd,[4],122 ± 10 nM
UGUUCCCGUCU (ssRNA) [U5GUG (G108U)],Kd,[5],239 ± 20 nM
UUUUCCCGUCU (ssRNA) [U5UUG (G106U;G108U)],Kd,[6],547 ± 55 nM
UGUUCCCUUCU (ssRNA) [U5GUU (G108U;G112U)],Kd,[7],880 ± 91 nM
UGUGCCCUUCU (ssRNA) [U5GGU (G112U)],Kd,[8],81 ± 8 nM
